Columns and labels:
[1] = target: Flag-tagged SMARCA4 purified from HCT116 cells (human) (UniProt P51532); test: MST; SMARCA4 protein labelled with NT-647-NHS at 100 nM; peptides 10 nM to 500 μM; PBS pH 7.4, 0.05% Tween-20; 5 min incubation; Monolith NT.115; one-site binding (Kd formula)
[2] = target: GST-SMARCA4-F4 (aa1009-1314) (human) (UniProt P51532); test: as above
[3] = target: GST-SMARCA4-F4 (aa1009-1314) (human) (UniProt P51532); test: ITC; peptide 1 mM in the syringe, protein 100 μM in the cell; 19 injections of 2 μl; PBS; 25 °C; MicroCal ITC-200

- Kd [1]: 6.27 µM
- Kd [2]: 5.36 µM
- Kd [3]: 2410 nM
Substance: histone H4 N-terminal 20 amino acid peptide, Arg3 asymmetrically dimethylated (H4R3me2a), C-terminal biotin (from UniProt P62805 2-21)

Reference: PMC8048298
